Assay results reported in US7491701 (BOYS TOWN NATIONAL RESEARCH HOSPITAL, dated 2009).
Where no end group is shown, it is not given here.

B1: OTOF CTERM E48 (peptide)
peptide: CYSLPGYMVKKLLGA
modifications: not fully specified (residue 1); also: N-terminal Cys coupled to Sulfolink gel matrix (immobilised)
notes: also called E48 peptide; exon 48 (E48) otoferlin C-terminal peptide
B2: OTOF CTERM E47 (peptide)
peptide: CYSLPGYLAKKILGA
modifications: not fully specified (residue 1); also: N-terminal Cys coupled to Sulfolink gel matrix (immobilised)
notes: also called E47 peptide; exon 47 (E47) otoferlin C-terminal peptide

Columns and labels:
[1] = target: T1, HS9A_MOUSE, heat shock protein HSP-90 alpha (HSP 86) (mouse, UniProt P07901 2-733); test: peptide affinity matrix pull-down from mouse brain extract, Coomassie-stained SDS-PAGE (FIG. 1A)
T1 construct: Native protein captured from mouse brain extract; identified by mass spectrometry and western blot; also called p97; 97-kilodalton protein
Experimental: FIG. 1A Coomassie stained gel, FIG. 1B Western analysis of an identical gel with antibody to beta-COP. MW=molecular weight markers, Total=13,200 rpm supernatant loaded onto column matrix. E47=sample eluted from OTOF CTERM E47 column matrix. BC1=672 BC1, E48=OTOF CTERM E48, CC1=670 CC1. Brain extracts were made in a Potter-Elvehjem Teflon glass homogenizer using 1 ml/100 mg tissue of TNGD (50 mM TRIS 7.5, 75 mM NaCl, 10 mM EGTA, 2 mM EDTA) plus protease inhibitor 10 ul/ml (Sigma P8340). Protein extracts were absorbed to four Sulfolink-peptide affinity matrices and washed four times with TNGD. The column matrix was transferred to PCR tubes and made 1× with SDS buffer (Pierce Cat. No. 39001) and heated at 95° C. for 5 minutes. Samples were separated on a 4-20% polyacrylamide gel. E47 peptide corresponds to otoferlin exon 47 C-terminal. E48 peptide corresponds to otoferlin exon 48 C-terminal. BC1 and CC1 peptides are specific controls for E47 and E48 respectively where a di-serine replaces di-lysine. Antibody to beta-COP (Ocogene cat # PC175) was used at a dilution of 1:1500.

[2] = target: T2, recombinant human Hsp90α (Stressgen SPP-776, Lot No. B201401) (human, UniProt P07900 1-732); test: peptide affinity column, elution with 600 mM NaCl, silver-stained SDS-PAGE (no eluted protein was detected from the E47 column)
T2 construct: Bought recombinant protein; also called purified Hsp90α; purified human Hsp90α
Experimental: The columns was preabsorbed with 100 μl of 10% BSA for 30 minutes at 4° C. and mixed by rotation. The columns were then washed five times with 0.4 ml of TNGD. Four hundred (400) ng of recombinant human Hsp90α (Stressgen SPP-776, Lot No. B201401) in 100 μl of TNGD was added to each column for 30 minutes at 4° C. and mixed by rotation. The unabsorbed protein was removed by centrifugation. The columns were washed five times with 0.4 ml of TNGD, then eluted with 100 μl TNGD+600 mM NaCl. Samples were analyzed on a 4-20% SDS-PAGE gel followed by silver staining using a BIORAD Silver Stain Plus kit (No. 161-0449) as show in FIG. 5. […] The amount of protein added and eluted was determined by scanning the silver stained gel using a Alpha Imager 2200 gel imaging system. Approximately 10% of the protein corresponding to Hsp90 molecular weight was eluted with 600 mM NaCl+TGND from the E48 column while no eluted protein was detected with the same elution conditions from the E47 column.

Binder | binding result [1] | binding result [2]
B1 | binds | –
B2 | no binding | no binding
